{
  "source": "paper PMC3118792",
  "target": "mixture of human tenascin and human fibronectin matrix proteins (human)",
  "assay": "SPR; BIAcore X, CM4 chip with an amine-coupled mixture of human tenascin and human fibronectin (4100 RU); samples injected at 1 µM in HBS (10 mM HEPES, 150 mM NaCl, 3 mM EDTA, 0.05% P20, pH 7.4), 5 µl/minute, 25°C, 1 minute, then 1 minute dissociation; reference cell subtracted",
  "data": [
    {"substance": "AvidinOX (from UniProt P02701 25-152)", "values": [
      {"measurement": "response (RU)", "value": "> 2000", "unit": "RU"}
    ]},
    {"substance": "avidin (from UniProt P02701 25-152) (natural protein)", "values": [
      {"measurement": "response (RU)", "value": 30, "unit": "RU"}
    ]}
  ]
}
